Numbering of substitutions follows the chain as printed.

In assay [1] the target is PAI-1WT (wild-type plasminogen activator inhibitor 1, recombinant) (UniProt P05121). Nature of the assay: SPR; competition: 250 nM PAI-1WT preincubated with increasing concentrations of SMB, then flowed over immobilised full-length SorLA; HBS-P buffer with 1.0 mM CaCl2, pH 7.4, 25°C.
Assay [2] has as its target T1, Soluble full-length SorLA (sortilin-related receptor 1) (UniProt Q92673 82-2137). Nature of the assay: SPR; SorLA or its VPS10 domain immobilised on a CM5 chip (5,000 and 2,500 RU); PAI-1 flowed over; HBS-P buffer with 1.0 mM CaCl2, pH 7.4, 25°C, 20 uL/min; equilibrium analysis (Req/Rmax), single binding site.
The target in assay [3] is T2, SorLA VPS10 domain (vacuolar protein sorting 10 domain).
T2 chain: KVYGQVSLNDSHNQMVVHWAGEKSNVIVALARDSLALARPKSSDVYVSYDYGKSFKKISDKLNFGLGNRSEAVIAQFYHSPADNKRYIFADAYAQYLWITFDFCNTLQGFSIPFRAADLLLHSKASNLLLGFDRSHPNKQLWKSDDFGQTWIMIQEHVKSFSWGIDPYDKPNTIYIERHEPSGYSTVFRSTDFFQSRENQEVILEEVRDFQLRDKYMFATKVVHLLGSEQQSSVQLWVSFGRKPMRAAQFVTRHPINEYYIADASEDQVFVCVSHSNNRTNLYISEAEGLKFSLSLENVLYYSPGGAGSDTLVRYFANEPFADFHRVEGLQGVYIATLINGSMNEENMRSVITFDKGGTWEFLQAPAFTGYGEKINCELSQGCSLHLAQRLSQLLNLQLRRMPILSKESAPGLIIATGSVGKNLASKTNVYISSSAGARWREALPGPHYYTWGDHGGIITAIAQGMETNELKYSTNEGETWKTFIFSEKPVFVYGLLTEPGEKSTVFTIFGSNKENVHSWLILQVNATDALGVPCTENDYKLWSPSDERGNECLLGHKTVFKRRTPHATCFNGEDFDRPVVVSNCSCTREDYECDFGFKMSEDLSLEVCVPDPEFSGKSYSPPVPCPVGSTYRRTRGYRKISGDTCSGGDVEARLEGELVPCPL
Nature of the assay: SPR.

Assay [4] deals with T1, Soluble full-length SorLA …. Nature of the assay: SPR.

As to “Somatomedin B (SMB) domain of vitronectin (VTN) (from UniProt P04004 20-63) (domain or fragment)”, in assay [1], the half-inhibitory concentration (IC50) worked out at 464 nM.

B1: PAI-1WT (wild-type plasminogen activator inhibitor 1, recombinant) (natural protein)
chain: VHHPPSYVAHLASDFGVRVFQQVAQASKDRNVVFSPYGVASVLAMLQLTTGGETQQQIQAAMGFKIDDKGMAPALRHLYKELMGPWNKDEISTTDAIFVQRDLKLVQGFMPHFFRLFRSTVKQVDFSEVERARFIINDWVKTHTKGMISHLLGTGAVDQLTRLVLVNALYFNGQWKTPFPDSSTHRRLFHKSDGSTVSVPMMAQTNKFNYTEFTTPDGHYYDILELPYHGDTLSMFIAAPYEKEVPLSALTNILSAQLISHWKGNMTRLPRLLVLPKFSLETEVDLRKPLENLGMTDMFRQFQADFTSLSDQEPLHVALALQKVKIEVNESGTVASSSTAVIVSARMAPEEIIIDRPFLFVVRHNPTGTVLFMGQVMEP
Consider B1, for which the Kd in assay [2] was 126 nM; in assay [3], 1590 nM; in assay [4] it was 102 nM.

B2: PAI-1AK (PAI-1 Arg101Ala, Gln123Lys) (natural protein)
chain: B1 chain with R101A, Q123K
With B2, the values for the Kd in assay [2] and in assay [4] were 540 nM and 491 nM, respectively.

Values taken from PMC12220977 (2025).
